# Experimental data published in patent US20070299013A1 (CLEVELAND STATE UNIVERSITY, published 2007).
# Where no end group is shown, it is not given here. [ ]: non-standard residue; d: D form. sY = N[C@@H](Cc1ccc(OS(=O)(=O)O)cc1)C(=O)O
# B1: pentapeptide DYDYQ (Asp695-Tyr696-Asp697-Tyr698-Gln699 of human factor Va heavy chain) (peptide)
# peptide: DYDYQ
# notes: Synthetic, non-sulfonated pentapeptide; also called D5Q
# B2: HC4 peptide (amino acid residues 695-704 of human factor Va heavy chain) (peptide)
# peptide: DYDYQNRLAA
# notes: Synthetic 10-residue peptide
# B3: P15H control pentadecapeptide (amino acid sequence 337-351 from the middle portion of human factor Va heavy chain) (peptide)
# peptide: PVIPANMDKKYRSQH
# notes: Negative control peptide; also called control peptide
# B4: double sulfonated peptide DYDYQ (1, 2), DY(-SO3)DY(-SO3)Q (peptide)
# peptide: D[sY]D[sY]Q
# notes: Sulfonated form of the factor Va 695-699 motif; also called D5Q1,2
# B5: HC5 peptide (from region 680-709 of human factor Va heavy chain) (peptide)
# peptide: NRLAAALGIR
# notes: Last of five overlapping 10-mers
# B6: HC3 peptide (amino acid region 690-699 of human factor Va heavy chain) (peptide)
# peptide: EESDADYDYQ
# notes: Synthetic 10-residue peptide
# B7: HC2 peptide (from region 680-709 of human factor Va heavy chain) (peptide)
# peptide: LEPEDEESDA
# B8: HC1 peptide (from region 680-709 of human factor Va heavy chain) (peptide)
# peptide: KMHDRLEPED
# notes: First of five overlapping 10-mers
# How the values were obtained:
# human prothrombin [1] = molecular target: T1, human prothrombin (human, UniProt P00734 44-622); experiment: calculated from IC50 (1.6 µM) of prothrombinase inhibition, IC50=Ki(1+S0/Km)
# T1 construct: Zymogen substrate of prothrombinase; also called factor II
# Protocol: All experiments were performed in triplicates or as indicated. The concentration of each peptide given in the figures and figure legends is their final concentration in the assay. The data were stored using the software FL WinLab (Perkin-Elmer Corp, Norwalk Conn.) and further analyzed and plotted with the software Prizm (GraphPad, San Diego, Calif.). In some cases the data were also analyzed and plotted using DeltaGraph (DeltaPoint, Monterey, Calif.).
# human prothrombin [2] = molecular target: T1, human prothrombin; experiment: cell-based or functional assay
# human prothrombin [3] = molecular target: T1, human prothrombin; experiment: calculated from IC50 of prothrombinase inhibition, IC50=Ki(1+S0/Km), Km 0.4 µM, prothrombin 350 nM
# Protocol: The buffer used in all cases was composed of 20 mM Hepes, 0.15 M NaCl, 5 mM CaCl₂, pH 7.4 [HBS(Ca²⁺), “assay buffer”]. […] All experiments were performed in triplicates or as indicated. The concentration of each peptide given in the figures and figure legends is their final concentration in the assay. The data were stored using the software FL WinLab (Perkin-Elmer Corp, Norwalk Conn.) and further analyzed and plotted with the software Prizm (GraphPad, San Diego, Calif.). In some cases the data were also analyzed and plotted using DeltaGraph (DeltaPoint, Monterey, Calif.).
# [4] = molecular target: T2, N-alpha-[(acetylthio)acetyl]-Phe-Pro-Arg-thrombin (ATA-FPR-thrombin) coupled to agarose through the active … (UniProt P00734 328-622); experiment: chromatography on 2.5 ml thrombin-agarose, A280
# Protocol: (§1) Since some of the peptides contain aromatic amino acid residues, their concentration was also measured by optical density.
# (§2) Each run represents 400 μg of peptide. […] Elution was performed with 2M NaCl and was started at the point indicated by the arrow (fraction #30). The presence of the peptides in the corresponding fractions was monitored by absorbance at 280 nm (shown on the y axis) and by LC/MS (inset).
# human prothrombin [5] = molecular target: T1, human prothrombin; experiment: kinetic analysis of prothrombinase inhibition
# [6] = molecular target: T2, N-alpha-[(acetylthio)acetyl]-Phe-Pro-Arg …; experiment: chromatography on 2.5 ml thrombin-agarose, LC/MS of fraction #7 (before the salt elution)
# Protocol: as §1, §2
# [7] = molecular target: T2, N-alpha-[(acetylthio)acetyl]-Phe-Pro-Arg …; experiment: chromatography on 2.5 ml thrombin-agarose, LC/MS of fractions
# Protocol: as §1, §2
binder,measurement,setting,value
B1,Ki,human prothrombin [1],0.85 µM
same,IC50 of inhibition of prothrombinase function,human prothrombin [2],1.6 µM
B2,Ki,human prothrombin [3],5.3 µM
same,IC50 of inhibition of prothrombinase activity (DAPA thrombin formation assay),human prothrombin [2],10 µM
B3,binding result,[4],no binding (tested: 400 µg of peptide)
B4,binding result,human prothrombin [5],binds
B5,binding result,[6],no binding (tested: 400 µg of peptide)
B6,Ki,human prothrombin [3],6.3 µM
same,IC50 of inhibition of prothrombinase activity (DAPA thrombin formation assay),human prothrombin [2],12 µM
B7,binding result,[7],no binding (tested: 400 µg of peptide)
B8,binding result,[7],no binding (tested: 400 µg of peptide)
